{"source": "paper PMC3519819", "binders": {"B1": {"name": "DptC fused with the target protein (pTRG-DptC, pJTU3610), E2D677 1-544 (natural protein)", "chain": "MSKLVQAYDLAEYEDFINQEQFAGRPLAEYVAEVQRIYCADKRPWVIGYSGGKDSSAVITLVYLALLGLPPEMRSKDVFIVSSDTLVETPVVVDLIKKTMLQIEAGAKRNGLPITQHAVTPKTNETFWVNLLGKGYPAPTRSFRWCTERMKINPVSDFIKDKVSQFDEVIVVLGSRSSESASRAQVIAKHKIDGSRLARHTTLANAFIYTPIDTWDVEDVWKLLRGAFRYAPEDIDEWESPWGGNNRPLWTLYMDSSAQGECPLVIDESTPSCGNSRFGCWTCTVVTKDKAMESLIKNGEEWMSPLLKYRDLLAFTTDPANKDTYRNYKRRTGKVSYQYAKDGEDRSAERKHVPGPYWLKYRQQWLKDLLEIERDLNAQGHTITLITQPELHAIRQEWLKDPNEPDWHDTLPEIYREVYQQDLNWVVDDQSRFDASDADLLAQITQGFDVVPEMVMKLIELETSMEGLSRRQGIFDKLGTILKQDWGSLEEIQQQQATLQKRNDRDIHQDEVEKLEAELQTLQRRIIDAGESSVLIDEENERAH"}}, "biological_target": "IscS fused with the bait protein (pBT-IscS, pJTU3618) (E. coli), P0A6B7", "sequence (P0A6B7 whole entry, the tested form may be a part)": "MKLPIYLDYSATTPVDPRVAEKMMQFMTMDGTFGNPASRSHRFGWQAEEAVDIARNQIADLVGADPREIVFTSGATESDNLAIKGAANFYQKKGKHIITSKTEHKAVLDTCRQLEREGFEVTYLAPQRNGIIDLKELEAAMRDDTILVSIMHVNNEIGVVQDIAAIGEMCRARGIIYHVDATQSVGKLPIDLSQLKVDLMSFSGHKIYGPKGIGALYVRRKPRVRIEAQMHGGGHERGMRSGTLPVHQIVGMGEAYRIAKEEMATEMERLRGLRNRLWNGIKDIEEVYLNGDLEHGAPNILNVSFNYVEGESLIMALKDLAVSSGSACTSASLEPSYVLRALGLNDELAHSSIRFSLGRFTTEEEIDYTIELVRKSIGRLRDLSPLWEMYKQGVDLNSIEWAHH", "experiment": "two-hybrid; BacterioMatch II bacterial two-hybrid; IscS on pBT (bait), Dpt proteins on pTRG (target); reporter strain E. coli XL1-Blue MRF' Kan; colonies counted on Selective Screening Medium with 5 mM 3-AT against nonselective medium, 24 h at 37°C", "conditions": "remark: other sources report otherwise"}
{"binder": "B1", "values": [{"measurement": "surviving cells on 3AT", "value": 2, "unit": "%"}]}
